Here are results for four molecules from publication PMC11315935, “Multi-layered heterochromatin interaction as a switch for DIM2-mediated DNA methylation” (Nature Communications, 2024).

Changes are numbered by the printed parent chain. Numbers in names are those of the source.

First the molecules themselves.
B1: DIM2 (Defective-In-Methylation-2) N-terminal fragment, residues 1-1242, wild type (domain or fragment, Neurospora crassa, UniProt Q3Y3Z1 1-1242, looked up)
chain: MDSPDRSHGGMFIDVPAETMGFQEDYLDMFASVLSQGLAKEGDYAHHQPLPAGKEECLEPIAVATTITPSPDDPQLQLQLELEQQFQTESGLNGVDPAPAPESEDEADLPDGFSDESPDDDFVVQRSKHITVDLPVSTLINPRSTFQRIDENDNLVPPPQSTPERVAVEDLLKAAKAAGKNKEDYIEFELHDFNFYVNYAYHPQEMRPIQLVATKVLHDKYYFDGVLKYGNTKHYVTGMQVLELPVGNYGASLHSVKGQIWVRSKHNAKKEIYYLLKKPAFEYQRYYQPFLWIADLGKHVVDYCTRMVERKREVTLGCFKSDFIQWASKAHGKSKAFQNWRAQHPSDDFRTSVAANIGYIWKEINGVAGAKRAAGDQLFRELMIVKPGQYFRQEVPPGPVVTEGDRTVAATIVTPYIKECFGHMILGKVLRLAGEDAEKEKEVKLAKRLKIENKNATKADTKDDMKNDTATESLPTPLRSLPVQVLEATPIESDIVSIVSSDLPPSENNPPPLTNGSVKPKAKANPKPKPSTQPLHAAHVKYLSQELVNKIKVGDVISTPRDDSSNTDTKWKPTDTDDHRWFGLVQRVHTAKTKSSGRGLNSKSFDVIWFYRPEDTPCCAMKYKWRNELFLSNHCTCQEGHHARVKGNEVLAVHPVDWFGTPESNKGEFFVRQLYESEQRRWITLQKDHLTCYHNQPPKPPTAPYKPGDTVLATLSPSDKFSDPYEVVEYFTQGEKETAFVRLRKLLRRRKVDRQDAPANELVYTEDLVDVRAERIVGKCIMRCFRPDERVPSPYDRGGTGNMFFITHRQDHGRCVPLDTLPPTLRQGFNPLGNLGKPKLRGMDLYCGGGNFGRGLEEGGVVEMRWANDIWDKAIHTYMANTPDPNKTNPFLGSVDDLLRLALEGKFSDNVPRPGEVDFIAAGSPCPGFSLLTQDKKVLNQVKNQSLVASFASFVDFYRPKYGVLENVSGIVQTFVNRKQDVLSQLFCALVGMGYQAQLILGDAWAHGAPQSRERVFLYFAAPGLPLPDPPLPSHSHYRVKNRNIGFLCNGESYVQRSFIPTAFKFVSAGEGTADLPKIGDGKPDACVRFPDHRLASGITPYIRAQYACIPTHPYGMNFIKAWNNGNGVMSKSDRDLFPSEGKTRTSDASVGWKRLNPKTLFPTVTTTSNPSDARMGPGLHWDEDRPYTVQEMRRAQGYLDEEVLVGRTTDQWKLVGNSVSRHMALAIGLKFREAWLGTLYD
B2: heterochromatin protein 1 (HP1), full length, residues 1-266 (natural protein, Neurospora crassa, UniProt Q1K612 1-266, looked up)
chain: MPYDPSALSDEEAASSVELDTRSATSSSKKQSRDKKSVKYTIPEPEDFEDEEQNGDGADEGGEDDEEGDEEEEDVYVVEKILDHMLNDDNEPLFLVKWEGYEKKSDQTWEPEDTLIEGASERLKEYFTKIGGREKIFEASAAAQKIKKRGRPSSNSGTPQASSNKRSRKNGDHPLNSEEPQTAKNAAWKPPAGSWEEHIAQLDACEDEDTHKLMVYLTWKNGHKTQHTTDVIYKRCPQKMLQFYERHVRIIKRDPDSEDREGSVSQ
notes: HP1, Neurospora crassa, UniProt Q1K612, residues 1-266, synthetic codon-optimised gene; Homodimer through its chromo shadow domains in the cryo-EM structures; only the CSDs (K189-I251, C191-I251) were traced; also called HP1-I; HP1-II; source: E. coli BL21 (DE3) RIL, purified (Ni-NTA, heparin, TEV cleavage, second Ni-NTA, SEC); not shown: His6, N-terminal, cleaved; MBP, N-terminal, cleaved
B3: DIM2 (residues 1-1242) L134A/L139A double mutant (domain or fragment, Neurospora crassa, UniProt Q3Y3Z1 1-1242, looked up)
chain: B1 chain with L134A, L139A
B4: DIM2 (residues 1-1242) R1104A mutant (domain or fragment, Neurospora crassa, UniProt Q3Y3Z1 1-1242, looked up)
chain: B1 chain with R1104A

The target in series [1] is histone H3 peptide (residues 1-24) with H3K9me3, plus a C-terminal tryptophan (UniProt P68431 2-25, trimethyl-lysine at K9). In words: cell-based or functional assay.
Series [2] has as its target B3. In words: SEC; analytical SEC, 1.0 µM DIM2 and/or 2.5 µM HP1 on Superdex 200 increase 10/300 GL, 20 mM Tris-HCl pH 7.5, 100 mM NaCl, 5% glycerol, 5 mM DTT; fractions on SDS-PAGE. To be noted: both partners purified. For orientation: Size exclusion chromatography separates by hydrodynamic size, large species first.
The target in series [3] is B1. The series is described as above. To be noted: both partners purified.
The target in series [4] is B2. In words: cell-based or functional assay.

In the case of B1, the “in vitro DNA methylation of a 36-mer duplex by DIM2 with HP1 and H3K9me3 peptide, against the DIM2-HP1 mixture” value in series [1] is about 90 fold.

As to B2, the binding result in series [2] and in series [3] was “binds” each time.

On to B3, for which the “in vitro DNA methylation of (CTA)12/(TAG)12 duplex with HP1 and H3(1-24)K9me3 peptide; reduction against WT DIM2” value in series [4] is 14 fold.

On to B4, for which, in series [4], the “in vitro DNA methylation: activity-stimulation effect of HP1, reduction against WT DIM2” value was about 8 fold and the “thermal shift assay: change of the Tm of DIM2 on co-incubation with HP1” value stood at 2.5 °C.
